This passage reports Kd results from publication PMC10786891, “Massively parallel profiling of RNA-targeting CRISPR-Cas13d”.

The chains are these.
B1: target 1 MT 5'PFS GUA 3'PFS CAU (mixed)
RNA 1: CACCCGUGCAAAAAUGCAGGGGUCUAAAACUGAGCGGAUAACCUCUCUAUGG
RNA 2: GGGAAUGGAUCCACAUCUACGAAUUCGUACCAUAGAGAGGUUAUCCGCUCACAUAGAUCGGAAGAGCACACGU
B2: target 1 MT 5'PFS ACU 3'PFS CAU (mixed)
RNA 1: B1 RNA 1
RNA 2: B1 RNA 2 with G27A, U28C, A29U
B3: target 1 MT 5'PFS GUA 3'PFS CAA (mixed)
RNA 1: B1 RNA 1
RNA 2: B1 RNA 2 with U54A
B4: target 1 MT 5'PFS UGC 3'PFS ACU (mixed)
RNA 1: B1 RNA 1
RNA 2: B1 RNA 2 with G27U, U28G, A29C, C52A, A53C
B5: target 1 MT 5'PFS AGA 3'PFS AAG (mixed)
RNA 1: B1 RNA 1
RNA 2: B1 RNA 2 with G27A, U28G, C52A, U54G
B6: target 1 MT 5'PFS GUA 3'PFS CAG (mixed)
RNA 1: B1 RNA 1
RNA 2: B1 RNA 2 with U54G
B7: target 1 MT 5'PFS UGG 3'PFS UUA (mixed)
RNA 1: B1 RNA 1
RNA 2: B1 RNA 2 with G27U, U28G, A29G, C52U, A53U, U54A
B8: target 1 MT 5'PFS UGC 3'PFS ACA (mixed)
RNA 1: B1 RNA 1
RNA 2: B1 RNA 2 with G27U, U28G, A29C, C52A, A53C, U54A
B9: target 1 MT 5'PFS CAA 3'PFS AAA (mixed)
RNA 1: B1 RNA 1
RNA 2: B1 RNA 2 with G27C, U28A, C52A, U54A
B10: target 1 MT 5'PFS AGA 3'PFS AAU (mixed)
RNA 1: B1 RNA 1
RNA 2: B1 RNA 2 with G27A, U28G, C52A
B11: target 1 insG 3' of 22,insU 3' of 2 (mixed)
RNA 1: B1 RNA 1
RNA 2: GGGAAUGGAUCCACAUCUACGAAUUCGUACGCAUAGAGAGGUUAUCCGCUCUACCGAGAUCGGAAGAGCACACGU
B12: target 1 MT 5'PFS AAC 3'PFS UUC (mixed)
RNA 1: B1 RNA 1
RNA 2: B1 RNA 2 with G27A, U28A, A29C, C52U, A53U, U54C
B13: target 1 MT 5'PFS CAA 3'PFS AAC (mixed)
RNA 1: B1 RNA 1
RNA 2: B1 RNA 2 with G27C, U28A, C52A, U54C
B14: target 1 MT 5'PFS GUA 3'PFS CAC (mixed)
RNA 1: B1 RNA 1
RNA 2: B1 RNA 2 with U54C
B15: target 1 MT 5'PFS ACG 3'PFS CGU (mixed)
RNA 1: B1 RNA 1
RNA 2: B1 RNA 2 with G27A, U28C, A29G, A53G
B16: target 1 MT 5'PFS UGC 3'PFS ACG (mixed)
RNA 1: B1 RNA 1
RNA 2: B1 RNA 2 with G27U, U28G, A29C, C52A, A53C, U54G
B17: target 1 MT 5'PFS AGA 3'PFS AAC (mixed)
RNA 1: B1 RNA 1
RNA 2: B1 RNA 2 with G27A, U28G, C52A, U54C

A word on the Kd: it is the free concentration of one partner at which half of the binding sites on the other are occupied at equilibrium, for simple one-to-one binding. Higher therefore signals a looser complex.

Residue numbers refer to the chain shown, from its start.

This series deals with T1, EsCas13d, nuclease-dead (Eubacterium siraeum, UniProt B0MS50, R295A;H300A;R849A;H854A).
T1 sequence: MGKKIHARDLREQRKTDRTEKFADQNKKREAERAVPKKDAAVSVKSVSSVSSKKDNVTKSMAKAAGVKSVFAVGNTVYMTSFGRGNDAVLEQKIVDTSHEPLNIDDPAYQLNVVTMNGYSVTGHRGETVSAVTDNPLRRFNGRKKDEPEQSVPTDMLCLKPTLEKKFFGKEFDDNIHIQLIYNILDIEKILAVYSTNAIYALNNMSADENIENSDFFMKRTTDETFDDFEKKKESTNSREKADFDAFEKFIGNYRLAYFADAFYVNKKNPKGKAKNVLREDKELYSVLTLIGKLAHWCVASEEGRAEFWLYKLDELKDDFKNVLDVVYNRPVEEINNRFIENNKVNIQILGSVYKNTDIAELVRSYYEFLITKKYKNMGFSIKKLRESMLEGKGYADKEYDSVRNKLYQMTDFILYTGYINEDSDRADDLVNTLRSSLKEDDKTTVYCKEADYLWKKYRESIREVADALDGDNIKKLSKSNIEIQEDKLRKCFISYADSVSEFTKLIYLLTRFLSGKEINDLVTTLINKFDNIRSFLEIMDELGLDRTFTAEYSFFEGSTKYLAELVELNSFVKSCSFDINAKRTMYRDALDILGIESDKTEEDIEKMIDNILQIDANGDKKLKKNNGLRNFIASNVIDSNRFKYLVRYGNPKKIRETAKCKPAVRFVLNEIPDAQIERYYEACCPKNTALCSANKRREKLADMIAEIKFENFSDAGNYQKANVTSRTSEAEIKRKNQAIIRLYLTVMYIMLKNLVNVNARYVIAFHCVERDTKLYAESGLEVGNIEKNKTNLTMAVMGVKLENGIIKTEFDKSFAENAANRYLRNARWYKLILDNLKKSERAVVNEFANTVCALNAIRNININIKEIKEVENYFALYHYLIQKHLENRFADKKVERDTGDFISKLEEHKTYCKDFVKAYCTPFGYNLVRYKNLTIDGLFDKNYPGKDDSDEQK
The experiment in a line: crRNA (strand 1, pre-loaded); Mg2+; 40 mM Tris-HCl pH 7.5, 150 mM NaCl, 6 mM MgCl2, 1 mM DTT, 0.1% Tween-20, 0.2 mg/ml BSA; 25 C; 10 min per concentration, then washed. The settings on record: tags: His6-TwinStrep-SUMO cleaved; N-terminal SNAP kept (SNAP-Surface 488); label: 3' end held by stalled T7 RNA polymerase.
For the molecule B1, binding was characterised by a dissociation constant (Kd) of 12 ± 1.15 nM.
In turn, B2 came in with a Kd of around 80 nM.
In the case of B3, the Kd worked out at 19.6 ± 2.3 nM.
For the molecule B4, the Kd was 10.8 ± 2.45 nM.
For the molecule B5, the Kd was around 65.5 nM.
On to B6, for which the Kd worked out at 17.6 ± 2.25 nM.
With B7, the Kd amounted to 48.5 ± 10.5 nM. This Kd is about 2.8-fold higher than that of the molecule before.
The molecule B8 came in with a Kd of 23.5 ± 8.5 nM.
Take B9: the Kd amounted to 43 ± 18 nM.
With B10 the figure was 61 ± 22 nM; with B11, 29.7 ± 2.7 nM; with B12, 14.1 ± 3.9 nM.
Molecule B13 came in with a Kd of around 27.5 nM.
The molecule B14 came in with a Kd of 16.9 ± 2.35 nM.
In turn, B15 returned a Kd of around 34 nM.
B16 had a Kd of 16.2 ± 4.65 nM.
Consider B17, for which the Kd was around 90 nM.
